Drawing on paper PMC11952106, this text covers stoichiometry N for one substance.

Experiment [1] has as its target act-EaCDCL^S (proteolytically activated short CDC-like protein of Elizabethkingia anophelis) (Elizabethkingia anophelis). In words: cryo-EM structure; membrane-inserted pore on POPC liposomes; act-EaCDCL^L (3.95 uM) then act-EaCDCL^S (7.9 uM) at 37°C; focused refinement, C30 symmetry, 2.87 Å.
Experiment [2] has the same target. In words: cryo-EM structure; prepore-like oligomer stacked on the inserted pore; act-EaCDCL^L (3.95 uM) then act-EaCDCL^S (7.9 uM) on POPC liposomes at 37°C; focused refinement, C30 symmetry, 3.13 Å.

On to “act-EaCDCL^S (proteolytically activated short CDC-like protein of Elizabethkingia anophelis) (domain or fragment)”, for which the stoichiometry N in experiment [1] and in experiment [2] was 30 subunits each time.

As usually defined, the stoichiometry N is the number of molecules, sites or subunits per partner or assembly.
